Results: US20080148430

B1: AtMPK3 (protein)
chain: MNTGGGQYTDFPAVETHGGQFISYDIFGSLFEITSKYRPPIIPIGRGAYGIVCSVLDTETNELVAMKKIANAFDNHMDAKRTLREIKLLRHLDHENIIAIRDVVPPPLRRQFSDVYISTELMDTDLHQIIRSNQSLSEEHCQYFLYQLLRGLKYIHSANIIHRDLKPSNLLLNANCDLKICDFGLARPTSENDFMTEYVVTRWYRAPELLLNSSDYTAAIDVWSVGCIFMELMNRKPLFPGKDHVHQMRLLTELLGTPTESDLGFTHNEDAKRYIRQLPNFPRQPLAKLFSHVNPMAIDLVDRMLTFDPNRRITVEQALNHQYLAKLHDPNDEPICQKPFSFEFEQQPLDEEQIKEMIYQEAIALNPTYG
B2: AtMPK6 (protein)
chain: MDGGSGQPAADTEMTEAPGGFPAAAPSPQMPGIENIPATLSHGGRFIQYNIFGNIFEVTAKYKPPIMPIGKGAYGIVCSAMNSETNESVAIKKIANAFDNKIDAKRTLREIKLLRHMDHENIVAIRDIIPPPLRNAFNDVYIAYELMDTDLHQIIRSNQALSEEHCQYFLYQILRGLKYIHSANVLHRDLKPSNLLLNANCDLKICDFGLARVTSESDFMTEYVVTRWYRAPELLLNSSDYTAAIDVWSVGCIFMELMDRKPLFPGRDHVHQLRLLMELIGTPSEEELEFLNENAKRYIRQLPPYPRQSITDKFPTVHPLAIDLIEKMLTFDPRRRITVLDALAHPYLNSLHDISDEPECTIPFNFDFENHALSEEQMKELIYREALAFNPEYQQ

Tests used:
[1] = target: T1, GST fusion containing the first 46 amino acids of Phos32
T1 chain: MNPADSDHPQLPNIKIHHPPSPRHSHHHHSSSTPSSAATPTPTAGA

[2] = target: T2, AtPhos32 (At5g54430)
T2 chain: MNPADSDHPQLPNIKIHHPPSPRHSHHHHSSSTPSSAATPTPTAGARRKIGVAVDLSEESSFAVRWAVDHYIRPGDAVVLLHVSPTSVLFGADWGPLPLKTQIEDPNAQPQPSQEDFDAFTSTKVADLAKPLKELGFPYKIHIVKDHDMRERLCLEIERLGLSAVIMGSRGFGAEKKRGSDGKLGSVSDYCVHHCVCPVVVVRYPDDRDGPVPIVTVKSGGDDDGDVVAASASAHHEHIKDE

[3] = target: T3, Myelin Basic Protein (MBP) Bovine P02687
T3 chain: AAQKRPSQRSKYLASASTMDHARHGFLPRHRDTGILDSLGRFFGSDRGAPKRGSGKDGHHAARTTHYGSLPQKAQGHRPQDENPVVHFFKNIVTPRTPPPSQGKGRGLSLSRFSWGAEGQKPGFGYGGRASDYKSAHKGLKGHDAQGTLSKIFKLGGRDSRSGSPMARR

[4] = target: T4, AtPhos34 (At4g27320)
T4 chain: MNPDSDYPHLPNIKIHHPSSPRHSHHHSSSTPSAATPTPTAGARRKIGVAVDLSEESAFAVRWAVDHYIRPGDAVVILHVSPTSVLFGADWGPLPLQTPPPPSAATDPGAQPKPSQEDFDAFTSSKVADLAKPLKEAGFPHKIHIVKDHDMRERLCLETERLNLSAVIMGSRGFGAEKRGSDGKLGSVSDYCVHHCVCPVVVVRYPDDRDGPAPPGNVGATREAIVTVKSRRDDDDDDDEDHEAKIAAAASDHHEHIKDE

[5] = target: T5, Phos32 with serine S21 mutated to alanine
T5 chain: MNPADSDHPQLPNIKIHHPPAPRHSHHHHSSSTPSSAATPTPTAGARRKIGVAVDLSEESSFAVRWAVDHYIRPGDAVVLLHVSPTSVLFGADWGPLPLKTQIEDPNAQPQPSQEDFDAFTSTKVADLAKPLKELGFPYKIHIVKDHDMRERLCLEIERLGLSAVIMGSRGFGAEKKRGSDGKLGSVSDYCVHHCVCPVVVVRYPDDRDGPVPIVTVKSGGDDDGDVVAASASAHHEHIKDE

[6] = target: T6, Phos32 with serine S21 mutated to aspartic acid
T6 chain: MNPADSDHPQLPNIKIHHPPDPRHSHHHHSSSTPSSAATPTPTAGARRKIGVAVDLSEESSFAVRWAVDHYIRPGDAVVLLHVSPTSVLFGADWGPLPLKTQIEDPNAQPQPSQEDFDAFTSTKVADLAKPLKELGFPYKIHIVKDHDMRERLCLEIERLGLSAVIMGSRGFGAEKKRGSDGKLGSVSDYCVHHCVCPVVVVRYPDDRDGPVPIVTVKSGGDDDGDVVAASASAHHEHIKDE

Row | Protein | in vitro kinase assay [1] | in-solution kinase assays with 32P-gammaATP [2] | level of phosphorylation in an in vitro kinase assay [2] | level of phosphorylation in an in vitro kinase assay [3] | in-solution kinase assays with 32P-gammaATP [4] | in vitro kinase assay [5] | in vitro kinase assay [6]
1 | B1 | the first 46 amino acids of Phos32 protein are sufficient for MAP kinase recognition and phosphorylation | we found that these proteins are excellent MAP kinase substrates | Phos32 is at least as good if not a better substrate than MBP for this MAP Kinase | we used 2 µg of MBP in an in vitro kinase assay with AtMPK3 and compared the level of phosphorylation | we found that these proteins are excellent MAP kinase substrates | mutation of this residue to alanine or aspartic acid abolishes phosphorylation by MAPKs | mutation of this residue to alanine or aspartic acid abolishes phosphorylation by MAPKs
2 | B2 | the first 46 amino acids of Phos32 protein are sufficient for MAP kinase recognition and phosphorylation | we found that these proteins are excellent MAP kinase substrates | – | – | we found that these proteins are excellent MAP kinase substrates | mutation of this residue to alanine or aspartic acid abolishes phosphorylation by MAPKs | mutation of this residue to alanine or aspartic acid abolishes phosphorylation by MAPKs
